From PMC5555201, “Parallel homodimer structures of the extracellular domains of the voltage-gated sodium channel β4 subunit explain its role in cell–cell adhesion” (The Journal of Biological Chemistry, 2017)

Tests used:
[1] = molecular target: the molecule itself; test: SEC; HiLoad 16/60 Superdex 75, non-reducing conditions; second peak (65–75 ml) of the anion exchange chromatography; 20 mM Tris-HCl (pH 8.0), 150 mM NaCl, 10% glycerol
[2] = molecular target: the molecule itself; test: crystal structure; mouse β4ex, cubic crystal form, 3.1 Å; 2.7 M sodium malonate, 0.1 M Tris-HCl (pH 7.0), 0.5% Tween 20, 20 °C; two molecules in the asymmetric unit related by non-crystallographic 2-fold symmetry

B1: human β4 subunit extracellular domain fragment (residues 30–152) (domain or fragment, UniProt Q8IWT1-1 30-152, looked up)
chain: SLEVSVGKATDIYAVNGTEILLPCTFSSCFGFEDLHFRWTYNSSDAFKILIEGTVKNEKSDPKVTLKDDDRITLVGSTKEKMNNISIVLRDLEFSDTGKYTCHVKNPKENNLQHHATIFLQVV
notes: voltage-gated sodium channel β4 subunit, human, GenBank NP_777594, residues 30–152; all three Cys residues kept; His tag cleaved by tobacco etch virus protease; also called human β4ex; human β4 (hexagonal form); source: E. coli cell-free protein synthesis, purified (HisTrap, HiTrap Q, Superdex 75); not shown: His tag, N-terminal, cleaved
Question: B1 was tested. Which “stoichiometry N” value [1] did it give?
Answer: 2

B2: mouse β4 subunit extracellular domain fragment (residues 30–160) with a C-terminal His6 tag (domain or fragment, UniProt Q7M729 30-160, looked up)
chain: SLEVSVGKATTIYAINGSSILLPCTFSSCYGFENLYFKWSYNNSETSRILIDGIVKNDKSDPKVRVKDDDRITLEGSTKEKTNNISILLSDLEFSDTGRYTCFVRNPKEKDLNNSATIFLQVVDKLEKVDN
notes: voltage-gated sodium channel β4 subunit, mouse, GenBank BK001031.1, residues 30–160 (numbering starts from the initiator methionine residue); all three Cys residues kept; Cloned into pGEX6P2; GST cleaved with PreScission protease; also called mouse β4ex; mouse β4 (cubic form); source: E. coli BL21DE3, purified (nickel-Sepharose, glutathione-Sepharose, Mono Q); not shown: His6, C-terminal, kept
Question: Does B2 bind [2]?
Answer: binds
